# Data published in patent US20090304686A1, “INTERFERING IN ACTIVATION OF AN IMMUNE CELL BY INFLUENCING INTERACTION OF LAIR AND COLLAGEN” (UNIVERSOTAIR MEDISCH CENTRUM UTRECHT, priority 2006, published 2009).
# B1: wild-type LAIR-2: wild-type LAIR-2 protein in concentrated supernatant from LAIR-2-transfected 293T cells (protein)
# chain: QEGALPRPSISAEPGTVISPGSHVTFMCRGPVGVQTFRLEREDRAKYKDSYNVFRLGPSESEARFHIDSVSEGNAGLYRCLYYKPPGWSEHSDFLELLVKGTVPGTEASGFDAP
# B2: hLAIR-1-IgG: Chimeric protein of human LAIR-1 fused to the Fc region of human IgG1 (protein)
# chain: QEEDLPRPSISAEPGTVIPLGSHVTFVCRGPVGVQTFRLERDSRSTYNDTEDVSQASPSESEARFRIDSVREGNAGLYRCIYYKPPKWSEQSDYLELLVKESSGGPDSPDTEPGSSAGPTQRPSDNSHNEHAPASQGLKAEHLY
# modifications: left off: a dimerising Fc or GST
# notes: Chimeric protein of human LAIR-1 fused to the Fc region of human IgG1
# Legend:
# [1] = tested on: hLAIR-1/collagen interaction; experiment: Blocking of binding of hLAIR-1 expressing K562 cells to plate-bound collagens I and III; format: cell-based, human; conditions: pre-incubation of plate-bound collagens
# Description: Purified commercial collagens I, III (Sigma), II (Chemicon International), or BSA (100 μl/well, 20 μg/ml in PBS, 2 mM acetic acid) were coated overnight at 4° C. in 96-well MAXIsorp (Nunc) flat-bottom plates. After washings, wells were blocked with 1% (w/v) BSA. Meanwhile, 5×10^6 cells/ml wild type K562 cells or K562 transfectants were fluorescently labeled for 30 min at 37° C. with 5 μM calceine AM (Molecular Probes) in PBS. Cells were washed twice with RPMI/1% FCS and 100 μl medium of 1.5×10^6 cells/ml cells was added to each well and plates were incubated at 37° C. for 2 h. Input fluorescence was determined using a fluorescence plate reader (Fluoroskan Ascent, Thermo Labsystems), the plates were firmly flicked and washed for six times in culture medium. The retained fluorescence was determined for each well as a percentage of input fluorescence.
# 96-well MAXIsorp flat-bottom plates (Nunc) were coated overnight at 4° C. with purified collagens I or III (Sigma, 2 and 5 μg/ml respectively) or BSA (5 μg/ml) in 100 μl PBS, supplemented with 2 mM acetic acid. 5×10^6 cells/ml wild-type K562 or K562 stably transfected with hLAIR-1 were assayed for their capacity to adhere to the collagens in the 96 well plates as described before(15).
# human collagen type I = target: T1, human collagen type I (Homo sapiens, UniProt P02452+P08123); experiment: Surface plasmon resonance (BIAcore) binding of LAIR-IgG fusion proteins to immobilized collagen I
# T1 construct: purchased Sigma
# T1 sequence (P02452 162-1218 limits assumed): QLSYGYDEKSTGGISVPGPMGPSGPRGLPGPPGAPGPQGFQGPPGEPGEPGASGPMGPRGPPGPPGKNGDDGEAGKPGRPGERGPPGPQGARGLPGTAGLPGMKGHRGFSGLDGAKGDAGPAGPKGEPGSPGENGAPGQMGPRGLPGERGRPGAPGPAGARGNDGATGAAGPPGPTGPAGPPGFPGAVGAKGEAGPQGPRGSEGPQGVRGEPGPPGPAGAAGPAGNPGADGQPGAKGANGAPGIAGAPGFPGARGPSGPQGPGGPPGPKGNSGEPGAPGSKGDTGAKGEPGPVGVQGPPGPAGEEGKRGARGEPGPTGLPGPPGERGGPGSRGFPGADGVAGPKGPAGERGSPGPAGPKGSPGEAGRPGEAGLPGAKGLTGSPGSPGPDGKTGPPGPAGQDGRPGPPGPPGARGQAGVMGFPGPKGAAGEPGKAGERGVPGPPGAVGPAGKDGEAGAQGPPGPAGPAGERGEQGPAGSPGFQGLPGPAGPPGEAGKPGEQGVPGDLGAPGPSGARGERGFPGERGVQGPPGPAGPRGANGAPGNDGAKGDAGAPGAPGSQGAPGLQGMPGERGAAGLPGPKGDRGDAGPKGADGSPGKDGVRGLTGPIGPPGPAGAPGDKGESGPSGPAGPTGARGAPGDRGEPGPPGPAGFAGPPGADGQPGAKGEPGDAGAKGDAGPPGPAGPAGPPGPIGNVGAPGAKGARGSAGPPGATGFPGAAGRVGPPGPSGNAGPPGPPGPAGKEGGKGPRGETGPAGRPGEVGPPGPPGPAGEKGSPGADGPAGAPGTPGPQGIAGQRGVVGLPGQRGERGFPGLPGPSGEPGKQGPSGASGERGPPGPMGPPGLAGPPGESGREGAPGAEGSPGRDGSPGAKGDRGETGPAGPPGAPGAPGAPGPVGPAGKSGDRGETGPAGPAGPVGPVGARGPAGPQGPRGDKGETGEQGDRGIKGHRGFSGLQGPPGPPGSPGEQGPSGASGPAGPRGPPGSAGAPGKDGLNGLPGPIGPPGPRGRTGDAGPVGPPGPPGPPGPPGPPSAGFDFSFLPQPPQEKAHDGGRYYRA
# T1 sequence (P08123 80-1119 limits assumed): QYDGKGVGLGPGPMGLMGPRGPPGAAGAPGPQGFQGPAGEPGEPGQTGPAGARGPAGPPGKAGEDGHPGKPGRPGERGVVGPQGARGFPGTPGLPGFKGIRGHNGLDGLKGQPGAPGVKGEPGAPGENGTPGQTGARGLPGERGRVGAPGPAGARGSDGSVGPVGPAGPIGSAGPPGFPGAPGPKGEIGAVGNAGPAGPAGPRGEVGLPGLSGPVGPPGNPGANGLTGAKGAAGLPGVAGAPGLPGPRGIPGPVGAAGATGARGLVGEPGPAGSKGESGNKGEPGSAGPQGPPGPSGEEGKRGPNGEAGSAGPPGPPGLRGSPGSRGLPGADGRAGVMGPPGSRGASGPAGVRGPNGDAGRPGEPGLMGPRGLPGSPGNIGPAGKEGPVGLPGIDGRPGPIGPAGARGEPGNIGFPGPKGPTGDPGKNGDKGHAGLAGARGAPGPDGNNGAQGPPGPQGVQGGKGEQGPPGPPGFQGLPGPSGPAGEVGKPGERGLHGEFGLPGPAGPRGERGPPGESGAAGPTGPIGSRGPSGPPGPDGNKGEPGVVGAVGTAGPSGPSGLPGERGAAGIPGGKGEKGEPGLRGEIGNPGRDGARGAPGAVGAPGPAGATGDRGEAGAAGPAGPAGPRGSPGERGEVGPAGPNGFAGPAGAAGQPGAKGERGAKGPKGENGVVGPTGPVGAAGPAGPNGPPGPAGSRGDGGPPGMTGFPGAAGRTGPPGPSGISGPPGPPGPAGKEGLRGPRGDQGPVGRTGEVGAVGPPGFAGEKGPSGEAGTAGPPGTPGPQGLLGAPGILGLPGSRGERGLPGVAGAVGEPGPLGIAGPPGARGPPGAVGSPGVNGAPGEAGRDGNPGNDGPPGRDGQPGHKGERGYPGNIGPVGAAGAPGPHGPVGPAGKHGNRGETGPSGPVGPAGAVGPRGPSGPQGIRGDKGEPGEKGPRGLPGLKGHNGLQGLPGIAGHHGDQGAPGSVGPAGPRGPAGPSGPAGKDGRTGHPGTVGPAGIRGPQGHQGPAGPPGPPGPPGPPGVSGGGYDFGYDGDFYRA
# Description: (§1) Surface plasmon resonance (BIAcore) binding studies were performed using a BIAcore2000 system (BIAcore AB, Uppsala, Sweden). Approximately 2000-3000 response units (RU) of acid-soluble human collagen type I or III (Sigma) were immobilized on a CM5 biosensor chip using the amine coupling kit as instructed by the supplier. Immobilized triple-helical peptides composed of GCO(GPO)10GCOG-NH2 ((GPO)10, also known as collagen-related peptide, CRP^6) and GCP(GPP)10GCPG-NH2 ((GPP)10) were described previously^6. Approximately 250 RU (GPP)10 or (GPO)10 peptide trimers were immobilized using a cysteine coupling kit according manufacturers instructions. Analysis was performed in buffer (125 mM NaCl, 2.5 mM CaCl2, 0.005% (v/v) Tween 20, and 25 mM Hepes, (pH 7.4)) at 25° C. at a flow rate of 20 μl/min for collagen I and III interaction-studies and 5 μl/min for the immobilized peptides. […] Increasing concentrations of hLAIR-1-IgG were injected and allowed to reach an equilibrium plateau for 10 minutes. The delay between injections was 13 min, during which time the biosensor chip was flushed with buffer. In case of peptide-binding studies, biosensor chips were regenerated by injection of 0.1 M H3PO4 (2 min, 5 μl/min).
# (§2) Dissociation constants (Kd) and the number of binding sites expressed as the response at infinite hLAIR-1-IgG concentration (Bmax) were calculated as follows. First, the response at equilibrium (Req) was calculated for each association curve. Subsequently, Kd and Bmax were determined from the binding isotherms (Req plotted against hLAIR-1-IgG concentration) by fitting equation Req=Bmax*[hLAIR-1-IgG]/(Kd+[hLAIR-1-IgG]). The fit was calculated using computer program GraphPad Prism (GraphPad Prism version 3.00 for Windows; GraphPad Software, San Diego, Calif., USA). […]
# (§3) The surface plasmon resonance binding studies were performed as described before(15). LAIR-2-IgG dimer concentration was calculated based on a theoretical mass of 82.5 kDa.
# human collagen type III = target: T2, human collagen type III (Homo sapiens, UniProt P02461); experiment: Surface plasmon resonance (BIAcore) binding of LAIR-IgG fusion proteins to immobilized collagen III
# T2 construct: purchased Sigma
# T2 sequence (P02461 154-1221 limits assumed): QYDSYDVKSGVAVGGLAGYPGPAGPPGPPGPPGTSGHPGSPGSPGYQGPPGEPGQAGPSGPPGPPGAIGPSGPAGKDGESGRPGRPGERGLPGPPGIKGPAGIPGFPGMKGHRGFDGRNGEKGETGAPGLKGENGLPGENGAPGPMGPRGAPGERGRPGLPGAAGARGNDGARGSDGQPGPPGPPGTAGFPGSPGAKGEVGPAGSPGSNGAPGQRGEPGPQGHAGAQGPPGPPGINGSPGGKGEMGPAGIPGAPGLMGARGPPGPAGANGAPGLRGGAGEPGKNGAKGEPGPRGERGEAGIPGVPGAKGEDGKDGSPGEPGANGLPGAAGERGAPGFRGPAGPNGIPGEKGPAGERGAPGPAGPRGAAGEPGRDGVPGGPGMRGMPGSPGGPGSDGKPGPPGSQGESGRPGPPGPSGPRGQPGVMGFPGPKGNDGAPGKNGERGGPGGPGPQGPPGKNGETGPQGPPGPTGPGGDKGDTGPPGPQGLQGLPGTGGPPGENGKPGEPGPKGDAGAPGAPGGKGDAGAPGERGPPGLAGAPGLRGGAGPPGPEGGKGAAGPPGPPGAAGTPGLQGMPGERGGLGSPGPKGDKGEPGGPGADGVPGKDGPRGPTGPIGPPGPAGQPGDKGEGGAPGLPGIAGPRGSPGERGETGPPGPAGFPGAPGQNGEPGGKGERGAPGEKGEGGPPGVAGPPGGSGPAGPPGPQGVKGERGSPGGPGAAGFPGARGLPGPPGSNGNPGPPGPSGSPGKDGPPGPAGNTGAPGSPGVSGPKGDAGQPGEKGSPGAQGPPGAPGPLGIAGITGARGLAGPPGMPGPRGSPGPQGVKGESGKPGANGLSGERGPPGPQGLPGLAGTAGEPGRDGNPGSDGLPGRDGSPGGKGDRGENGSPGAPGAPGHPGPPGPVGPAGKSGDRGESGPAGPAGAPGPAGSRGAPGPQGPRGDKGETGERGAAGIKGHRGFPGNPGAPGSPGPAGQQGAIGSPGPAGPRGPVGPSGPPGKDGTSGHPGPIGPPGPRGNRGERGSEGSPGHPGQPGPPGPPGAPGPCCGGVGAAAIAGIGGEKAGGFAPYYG
# Description: as §1, §2, §3
# human collagen XVII = target: T3, human collagen XVII (Homo sapiens, UniProt Q9UMD9); experiment: LAIR fusion protein staining of Ba/F3 cells transfected with human collagen XVII; format: binding
# T3 construct: Full-length human collagen XVII, HIS-tagged human collagen XIII, and human KIR3DL1 were kindly provided; expressed in transfected cells; host or cells: Ba/F3 (retroviral transduction)
# T3 sequence (Q9UMD9 1-1497): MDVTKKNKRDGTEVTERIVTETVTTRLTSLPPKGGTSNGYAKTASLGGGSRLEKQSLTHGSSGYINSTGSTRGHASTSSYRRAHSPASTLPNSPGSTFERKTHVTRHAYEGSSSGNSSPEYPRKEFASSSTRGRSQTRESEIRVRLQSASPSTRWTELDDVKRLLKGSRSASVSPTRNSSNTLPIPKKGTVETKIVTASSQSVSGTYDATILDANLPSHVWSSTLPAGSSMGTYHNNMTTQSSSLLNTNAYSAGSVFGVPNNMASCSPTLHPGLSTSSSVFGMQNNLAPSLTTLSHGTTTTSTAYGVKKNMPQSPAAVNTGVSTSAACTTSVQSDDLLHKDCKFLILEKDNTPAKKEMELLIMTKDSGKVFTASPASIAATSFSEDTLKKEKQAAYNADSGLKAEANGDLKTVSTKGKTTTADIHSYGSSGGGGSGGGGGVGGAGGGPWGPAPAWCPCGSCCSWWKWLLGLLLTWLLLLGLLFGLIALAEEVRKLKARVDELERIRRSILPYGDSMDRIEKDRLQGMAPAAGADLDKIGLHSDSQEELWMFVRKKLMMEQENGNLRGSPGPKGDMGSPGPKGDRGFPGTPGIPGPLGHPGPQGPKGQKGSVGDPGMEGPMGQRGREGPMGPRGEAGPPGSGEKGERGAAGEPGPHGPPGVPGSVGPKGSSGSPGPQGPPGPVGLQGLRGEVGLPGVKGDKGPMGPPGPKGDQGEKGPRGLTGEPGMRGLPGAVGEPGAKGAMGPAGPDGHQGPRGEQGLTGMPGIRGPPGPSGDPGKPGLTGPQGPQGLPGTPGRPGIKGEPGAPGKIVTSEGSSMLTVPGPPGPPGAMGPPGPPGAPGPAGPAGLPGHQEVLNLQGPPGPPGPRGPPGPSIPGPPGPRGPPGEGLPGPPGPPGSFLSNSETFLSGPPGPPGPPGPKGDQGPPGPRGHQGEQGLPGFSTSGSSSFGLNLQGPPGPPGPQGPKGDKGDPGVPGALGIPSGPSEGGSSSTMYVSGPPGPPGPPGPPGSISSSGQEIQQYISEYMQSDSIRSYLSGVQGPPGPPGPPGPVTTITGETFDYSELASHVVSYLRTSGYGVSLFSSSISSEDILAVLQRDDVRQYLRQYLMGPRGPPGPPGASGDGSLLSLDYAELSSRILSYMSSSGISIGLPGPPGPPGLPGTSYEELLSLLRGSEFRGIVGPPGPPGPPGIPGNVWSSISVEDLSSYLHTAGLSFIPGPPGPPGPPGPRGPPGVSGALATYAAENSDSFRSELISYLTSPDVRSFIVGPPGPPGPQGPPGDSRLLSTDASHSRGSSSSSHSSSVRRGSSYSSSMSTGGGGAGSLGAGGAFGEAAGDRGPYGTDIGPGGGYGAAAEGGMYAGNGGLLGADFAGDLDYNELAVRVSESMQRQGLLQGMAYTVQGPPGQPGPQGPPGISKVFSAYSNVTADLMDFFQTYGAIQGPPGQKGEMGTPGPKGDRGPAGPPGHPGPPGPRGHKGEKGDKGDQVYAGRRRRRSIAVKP
# Description: Chimeric proteins of rat, mouse, and human LAIR-1 or human LAIR-2 fused to the Fc region of human IgG1 were prepared and cell lines were stained with these reagents in the absence or presence of blocking antibodies as described previously^11. When indicated, cells were incubated for 1 h with 100 units/ml chromatography purified C. histolyticum collagenase Type VII (Sigma) prior fusion-protein staining.
# [2] = tested on: endogenous hLAIR-1 ligand(s) on HT29 cells; experiment: Fusion protein blocking study on HT29 cells (flow cytometry); format: cell-based, human
# Description: For fusion protein blocking studies, chimeric proteins of the extracellular domain of hLAIR-1 or LAIR-2 fused to the Fc region of human IgG1 were prepared as described previously(19). HT29 cells were pre-treated with 10% normal mouse serum to block aspecific interactions. Subsequently, HT29 cells were incubated with unlabeled hLAIR-1-IgG or LAIR-2-IgG for 10 minutes at room temperature and subsequently incubated with biotinylated hLAIR-1-IgG or LAIR-2-IgG for 30 minutes at room temperature. Binding of biotinylated proteins was detected with allophycocyanin (APC) conjungated streptavidin (BD Biosciences, San Diego, Calif.) and cells were analyzed by flow cytometry (FACSCalibur™, BD).
Molecule,blocking of binding of hLAIR-1 expressing K562 cells to plate-bound collagens I and III [1],binding to collagen I (in words) (human collagen type I),higher affinity as compared to most IgSF-members interacting with their ligands (human collagen type I; collagen I and III),number of LAIR molecules / binding sites per single triple-helical collagen I molecule (Bmax) (human collagen type I; from Bmax of binding isotherm),binding to collagen III (in words) (human collagen type III),number of LAIR molecules / binding sites per single triple-helical collagen III molecule (Bmax) (human collagen type III; from Bmax of binding isotherm),"dissociation from collagen (in words) (human collagen type III; hLAIR-1-IgG: collagen I and III, LAIR-2-IgG: collagen III, collagen I comparable)",binding to Ba/F3 cells stably transfected with human collagen XVII (human collagen XVII),biotinylated LAIR-2-IgG staining of HT29 cells after pre-incubation [2]
B1,blocked,–,–,–,–,–,–,–,–
B2,–,high affinity,20-1000 fold,approximately 10.4,high affinity,~9.7,relatively slow dissociation,specific binding,reduced
